{"source": "patent US20150362488", "system": "RecQ helicase (Escherichia coli)", "conditions": "single-molecule hairpin re-zipping blockage (magnetic tweezers); no ATP; Ftest 10 pN; non-specific binding along template", "data": [{"substance": "mechanically opened DNA hairpin (ssDNA template)", "values": [{"measurement": "K half", "result": 0.226, "unit": "nM"}]}]}
